Where a SMILES comes first, the peptide text is derived from it. Where no end group is shown, it is not given here. Side-chain parts run from the residue outwards. The star is where a group is joined. X1 = CCCCc1nc2c(N)nc3ccccc3c2n1Cc1ccc(CNC(=O)COCC(=O)*)cc1; Palmitoyl = CCCCCCCCCCCCCCCC(=O)*; PEG3 = NCCOCCOCCOCCC(=O)O; ADJ12 = not defined here
Legend:
CT26 cells = test: Antitumor activity after intratumoral injection, CT26 right flank model; assay type: in vivo, BALB/c mice; details: 100 nmol/dose/animal intratumoral, day 1, 3, 5; FIG. 10
Protocol: (§1) Six to eight-week-old female BALB/c mice (Charles River) were injected subcutaneously with 2×10^5 CT26 cells on the right flank. When the tumors reached an average volume of ˜150 mm^3, mice were randomized into seven groups of eight mice per group, approximately 10 days (13 days) post tumor cell grafting, referred as day 0. After randomization, tumor size and body weight were assessed three times a week for the duration of the study. Animals were sacrificed according to the following humane endpoints: tumor volume ≥2000 mm^3, presence of necrotic or ulcerated tumor, impaired mobility including transient prostration or hunched posture, or interference with a vital physiological function. Treatments were initiated on day 1. All animals from group 1 to group 6 received three intratumoral injections of either formulated or non-formulated small molecule TLR7/8 agonists, or vehicle control, once every two days, on day 1, day 3 and day 5, in 50 μl delivery dose. Mice of group 7 were untreated. Animals from group 1 to group 4 were respectively treated with 100 nmol/dose/animal of kHL-12 or pHL-12 both prepared in 28 mM L-Histidine/Mannitol dilution buffer, or 3M-052 (MedChemExpress, teltralimod Cat. No.: HY-109104) prepared in ethanol/sesame oil (1:10), or R848 (Invivogen, R848 VacciGrade™, Cat. Code vac-r848) reconstituted in 28 mM L-Histidine/Mannitol dilution buffer. Mice from group 5 and group 6 received control vehicles in the delivery dose of 50 μl, 28 mM L-Histidine/Mannitol dilution buffer and ethanol/sesame oil (1:10), respectively.
(§2) Body weight was normalized by subtracting the weight of the tumor to the overall body weight.

[1] = intratumoral, very low doses (0.005 to 0.055 mg); cited from earlier work
[2] = poloxamer 407 thermogel formulation, intratumoral, animal models; cited from earlier work
[3] = Change in body weight in the CT26 study (systemic toxicity); assay type: in vivo, BALB/c mice; details: 100 nmol/dose/animal intratumoral, day 1, 3, 5; body weight minus tumor weight; FIG. 11
Protocol: as §1, §2

[4] = Appearance (visual) and solubility (RP-HPLC of supernatant) in different buffer conditions; assay type: physicochemical; details: for Solubility/appearance across buffer conditions: change in pH and/or presence of sodium chloride; for HPLC solubility: peak area vs same compound in 10% acetic acid
Protocol: The solubility of peptide conjugates KK-12, HH-12, AH-12 and HL-12 was determined by visual inspection of the solution and by RP-HPLC. Twenty (20) minutes after dispersion of the peptide conjugates in different buffer conditions, the solutions were centrifuged for 10 minutes and the supernatant analyzed by RP-HPLC. The peak area of each peptide conjugate was compared with the area of the same compound made fully soluble in 10% acetic acid. Appearance of the solution was evaluated visually according to the following criteria: clear, very slightly opalescent, slightly opalescent, opalescent or precipitated.

[5] = in more than half of the participants; cited from earlier work

Molecule	Antitumoral activity (median tumor volume) (CT26 cells)	Impact on body weight over time [3]	Solubility/appearance across buffer conditions [4]	HPLC solubility ([4]; pH 5.2, NaCl 154 mM) [% HPLC]	HPLC solubility ([4]; pH 5.2, no NaCl) [% HPLC]	HPLC solubility ([4]; pH 7.5, NaCl 154 mM) [% HPLC]	HPLC solubility ([4]; pH 7.5, no NaCl) [% HPLC]	other results
CCCCCCCCCCCCCCCCCC(=O)NCCCCOn1c(CCCC)nc2c(N)nc3ccccc3c21 [3M-052]	comparable	pronounced loss in body weight	–	–	–	–	–	Clinical adverse events [1]: induction of adverse events related to cytokine release syndrome; Systemic release of the drug [2]: systemic release of the drug after administration of this formulation was still observed
CCCCc1nc2c(N)nc3ccccc3c2n1Cc1ccc(CNC(=O)COCC(=O)NCCOCCOCCOCCC(=O)NCCCC[C@H](NC(=O)[C@H](CC(C)C)NC(=O)[C@H](CCCNC(=N)N)NC(=O)[C@H](CCCNC(=N)N)NC(=O)[C@H](CC(C)C)NC(=O)[C@H](CC(C)C)NC(=O)[C@H](C)NC(=O)[C@H](C)NC(=O)[C@H](Cc2c[nH]cn2)NC(=O)[C@H](CC(C)C)NC(=O)[C@H](C)NC(=O)[C@H](CC(C)C)NC(=O)[C@H](Cc2c[nH]cn2)NC(=O)[C@H](C)NC(=O)[C@H](C)NC(=O)[C@H](CC(C)C)NC(=O)[C@H](CC(C)C)NC(=O)[C@H](CCCNC(=N)N)NC(=O)[C@H](CCCNC(=N)N)NC(C)=O)C(N)=O)cc1 [AH-12, Ac-RRLLAAHLALHAALLRRLK(ADJ12)-NH2] (Ac-RRLLAAHLALHAALLRRLK([PEG3-X1])-NH2)	–	–	change in appearance and/or HPLC solubility	>98	>98	90	>98	–
CCCCOc1nc(N)c2[nH]c(=O)n(CCCN(CCCN3CCOCC3)Cc3cccc(CC(=O)OC)c3)c2n1 [AZD8848]	–	–	–	–	–	–	–	Clinical safety issues from systemic interferon signaling [5]: significant influenza-like symptoms
CCCCc1nc2c(N)nc3ccccc3c2n1Cc1ccc(CNC(=O)COCC(=O)NCCOCCOCCOCCC(=O)NCCCC[C@H](NC(=O)[C@H](CC(C)C)NC(=O)[C@H](CCCNC(=N)N)NC(=O)[C@H](CCCNC(=N)N)NC(=O)[C@H](CC(C)C)NC(=O)[C@H](CC(C)C)NC(=O)[C@H](Cc2c[nH]cn2)NC(=O)[C@H](C)NC(=O)[C@H](Cc2c[nH]cn2)NC(=O)[C@H](CC(C)C)NC(=O)[C@H](C)NC(=O)[C@H](CC(C)C)NC(=O)[C@H](Cc2c[nH]cn2)NC(=O)[C@H](C)NC(=O)[C@H](Cc2c[nH]cn2)NC(=O)[C@H](CC(C)C)NC(=O)[C@H](CC(C)C)NC(=O)[C@H](CCCNC(=N)N)NC(=O)[C@H](CCCNC(=N)N)NC(C)=O)C(N)=O)cc1 [HH-12, Ac-RRLLHAHLALHAHLLRRLK(ADJ12)-NH2] (Ac-RRLLHAHLALHAHLLRRLK([PEG3-X1])-NH2)	–	–	change in appearance and/or HPLC solubility	>98	>98	55	>98	–
CCCCc1nc2c(N)nc3ccccc3c2n1Cc1ccc(CNC(=O)COCC(=O)NCCOCCOCCOCCC(=O)NCCCC[C@H](NC(=O)[C@H](CC(C)C)NC(=O)[C@H](CCCNC(=N)N)NC(=O)[C@H](CCCNC(=N)N)NC(=O)[C@H](CC(C)C)NC(=O)[C@H](CC(C)C)NC(=O)[C@H](Cc2c[nH]cn2)NC(=O)[C@H](C)NC(=O)[C@H](CC(C)C)NC(=O)[C@H](CC(C)C)NC(=O)[C@H](C)NC(=O)[C@H](CC(C)C)NC(=O)[C@H](CC(C)C)NC(=O)[C@H](C)NC(=O)[C@H](Cc2c[nH]cn2)NC(=O)[C@H](CC(C)C)NC(=O)[C@H](CC(C)C)NC(=O)[C@H](CCCNC(=N)N)NC(=O)[C@H](CCCNC(=N)N)NC(C)=O)C(N)=O)cc1 [HL-12, Ac-RRLLHALLALLAHLLRRLK(ADJ12)-NH2] (Ac-RRLLHALLALLAHLLRRLK([PEG3-X1])-NH2)	–	–	change in appearance and/or HPLC solubility	>98	>98	0	>98	–
CCCCc1nc2c(N)nc3ccccc3c2n1Cc1ccc(CNC(=O)COCC(=O)NCCOCCOCCOCCC(=O)NCCCC[C@H](NC(=O)[C@H](CC(C)C)NC(=O)[C@H](CCCNC(=N)N)NC(=O)[C@H](CCCNC(=N)N)NC(=O)[C@H](CC(C)C)NC(=O)[C@H](CC(C)C)NC(=O)[C@H](CCCCN)NC(=O)[C@H](C)NC(=O)[C@H](CCCCN)NC(=O)[C@H](CC(C)C)NC(=O)[C@H](C)NC(=O)[C@H](CC(C)C)NC(=O)[C@H](CCCCN)NC(=O)[C@H](C)NC(=O)[C@H](CCCCN)NC(=O)[C@H](CC(C)C)NC(=O)[C@H](CC(C)C)NC(=O)[C@H](CCCNC(=N)N)NC(=O)[C@H](CCCNC(=N)N)NC(C)=O)C(N)=O)cc1 [KK-12, Ac-RRLLKAKLALKAKLLRRLK(ADJ12)-NH2] (Ac-RRLLKAKLALKAKLLRRLK([PEG3-X1])-NH2)	–	–	remains soluble	>98	>98	>98	>98	–
CCOCc1nc2c(N)nc3ccccc3c2n1CC(C)(C)O [R848, 1-(4-amino-2-(ethoxymethyl)-1H-imidazo[4,5-c]quinolin-1-yl)-2-methylpropan-2-ol]	comparable	pronounced loss in body weight	–	–	–	–	–	–
CCCCc1nc2c(N)nc3ccccc3c2n1Cc1ccc(CNC(=O)COCC(=O)NCCOCCOCCOCCC(=O)NCCCC[C@H](NC(=O)[C@H](CC(C)C)NC(=O)[C@H](CCCNC(=N)N)NC(=O)[C@H](CCCNC(=N)N)NC(=O)[C@H](CC(C)C)NC(=O)[C@H](CC(C)C)NC(=O)[C@H](Cc2c[nH]cn2)NC(=O)[C@H](C)NC(=O)[C@H](CC(C)C)NC(=O)[C@H](CC(C)C)NC(=O)[C@H](C)NC(=O)[C@H](CC(C)C)NC(=O)[C@H](CC(C)C)NC(=O)[C@H](C)NC(=O)[C@H](Cc2c[nH]cn2)NC(=O)[C@H](CC(C)C)NC(=O)[C@H](CC(C)C)NC(=O)[C@H](CCCNC(=N)N)NC(=O)[C@H](CCCNC(=N)N)NC(=O)[C@@H](N)CCCCNC(C)=O)C(N)=O)cc1 [kHL-12, K(Ac)—RRLLHALLALLAHLLRRLK(ADJ12)-NH2] (H-K(Ac)RRLLHALLALLAHLLRRLK([PEG3-X1])-NH2; N-terminus and C-terminus assumed)	–	limited impact on the body weight	–	–	–	–	–	–
K(Pam)-RRLLHALLALLAHLLRRLK(ADJ12)-NH2 (K(Palmitoyl)RRLLHALLALLAHLLRRLK(ADJ12)-NH2; reading uncertain; also: printed as K(Pam)-RRLLHALLALLAHLLRRLK(ADJ12)-NH2) [pHL-12]	lower level of antitumor activity	–	–	–	–	–	–	–

Reference: US20200316211A1, “LOCALLY ACTING TOLL-LIKE RECEPTOR 7 (TLR7) AND/OR TLR8 AGONIST IMMUNOTHERAPY COMPOUNDS AND THEIR USES” (Altimmune UK Limited, priority 2019, published 2020)
